# Measurements as given in patent publication US20180282430A1 (Bayer, published 2018).
# Numbering of substitutions follows the chain as printed. In names and notes the source's numbering stands.
# T1: Human TFPI (tissue factor pathway inhibitor) (human, UniProt P10646 29-304, limits assumed)
# T1 construct: Coated at 1 ug/ml on Maxisorb plates for the ELISA; For the Biacore work the human TFPI came from American Diagnostica
# T1 sequence (looked up): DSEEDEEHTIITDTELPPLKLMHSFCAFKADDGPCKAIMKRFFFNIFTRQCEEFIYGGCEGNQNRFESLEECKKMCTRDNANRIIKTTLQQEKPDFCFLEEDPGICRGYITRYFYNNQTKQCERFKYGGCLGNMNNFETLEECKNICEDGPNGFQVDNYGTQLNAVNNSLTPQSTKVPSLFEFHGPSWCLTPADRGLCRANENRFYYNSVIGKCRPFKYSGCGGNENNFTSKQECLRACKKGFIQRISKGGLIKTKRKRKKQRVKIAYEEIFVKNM
# B1: 2A8-g200 Fab (wild type) (Fab, V domains shown)
# VH: EVQLVESGGGLVQPGGSLRLSCAASGFTFSSYGMDWVRQAPGKGLEWVSSIRGSRGSTYYADSVKGRFTISRDNSKNTLYLQMNSLRAEDTAVYYCARLYRYWFDYWGQGTLVTVSS
# VL: SYELTQPPSVSVSPGQTARITCSGDNLPKYYAHWYQQKPGQAPVVVIFYDVNRPSGIPERFSGSNSGNTATLTISGTQAMDEADYYCQAWWSSTPVFGGGTKLTVLG
# notes: Fab format, expressed in E. coli; also called wt gA200Fab; wild type 2A8-g200 Fab
# B2: 2A8-g200 Fab VH-Y32H (Fab, V domains shown)
# VH: B1 VH with Y32H
# VL: B1 VL
# notes: Member of the 2A8-g200 Fab histidine scanning library
# B3: 2A8-g200 Fab VL-Y49H (Fab, V domains shown)
# VH: B1 VH
# VL: B1 VL with Y49H
# notes: as for B2
# B4: 2A8-g200 Fab VL-W90H (Fab, V domains shown)
# VH: B1 VH
# VL: B1 VL with W90H
# notes: as for B2
# B5: 2A8-g200 Fab VL-Y31H (Fab, V domains shown)
# VH: B1 VH
# VL: B1 VL with Y31H
# notes: as for B2
# B6: 2A8-g200 Fab VL-V45H (Fab, V domains shown)
# VH: B1 VH
# VL: B1 VL with V45H
# notes: as for B2
# B7: 2A8-g200 Fab VH-S50H (Fab, V domains shown)
# VH: B1 VH with S50H
# VL: B1 VL
# B8: 2A8-g200 Fab VL-L27H (Fab, V domains shown)
# VH: B1 VH
# VL: B1 VL with L27H
# notes: as for B2
# B9: 2A8-g200 Fab VL-F48H (Fab, V domains shown)
# VH: B1 VH
# VL: B1 VL with F48H
# notes: as for B2
# B10: 2A8-g200 Fab VH-Y102H (Fab, V domains shown)
# VH: B1 VH with Y102H
# VL: B1 VL
# notes: as for B2
# B11: 2A8-g200 Fab VH-Y100H (Fab, V domains shown)
# VH: B1 VH with Y100H
# VL: B1 VL
# notes: as for B2
# Molecular target: T1, Human TFPI (tissue factor pathway …)
# Test: ELISA on plate-coated human TFPI; Fab expression media bound, then 1 h at 37 C in PBS pH 7.0; amplex red
# Experimental: (§1) Human TFPI, 1 μg/ml, was used to coat Maxisorb™ microtiter plates. Expression media, 100 μl, from each member of the His scan library, was added to two wells on the plate, in a pair wise fashion. The plate was incubated on a shaker at room temperature for 1 hr. The plate was washed 3× with PBST. PBS (pH 7.0) was added to one well of the pair, 100 mM pH6.0 Citrate buffer was added to the second well of the same pair. The plate was incubated at 37° C. with shaking for one hr. The plate was washed 3× with PBST and developed using amplex red. A pH 7.0/pH 6.0 ratio was established to rank the sensitive muteins. The ratio for wild type 2A8-g200 Fab was 1.0.
row,"TFPI ELISA signal, pH 7.0",Binder
1,5250,B1
2,3560,B2
3,2660,B3
4,1830,B4
5,913,B5
6,2200,B6
7,2160,B7
8,3420,B8
9,2070,B9
10,3310,B10
11,2540,B11

# Molecular target: T1, Human TFPI (tissue factor pathway …)
# Test: pH 6.0 TFPI dissociation ELISA; ratio of the signals at pH 7.0 and pH 6.0
# Experimental: as §1
row,Ratio pH 7.0/pH 6.0,Binder
1,0.98,B1
2,1.38,B2
3,1.3,B3
4,1.21,B4
5,6.84,B5
6,1.24,B6
7,1.32,B7
8,1.3,B8
9,1.33,B9
10,3.07,B10
11,1.78,B11

# Molecular target: T1, Human TFPI (tissue factor pathway …)
# Test: SPR (Biacore T200): human TFPI amine-coupled on a CM4 or CM5 chip, Fab variant injected, dissociation followed in pH 7.4 or pH 6.0 buffer
# Experimental: Purified 2A8-g200 variants in Fab format (referred to as wt gA200Fab in Table 1) were tested using surface plasmon resonance (Biacore). Surface plasmon resonance (Biacore T200) was used to measure the dissociation rate of the antibodies. […] Purified 2A8-g200 variants were injected, following by 40-minute dissociation either at pH7.4 or pH6.0 buffer. The antibodies were diluted in HBS-P buffer at different concentrations and the flow rate was set to 50 μl/min. After each round of antibody injection, the chip was regenerated by injecting 90 μl of pH 1.5 glycine. The data set was evaluated using BIAevaluation Software.
# The dissociation constant (kd) for each 2A8-g200 variant antibody was determined by using a model with the following equation: […]
# where R is the response at time t, R₀ is the response at time t_{0.}—the start of dissociation, offset allows for a residual response at the end of complete dissociation. A ratio of kd at pH 6.0 to kd at pH 7.4 was calculated for each 2A8-g200 variant. A mutation with observed ratio of […] was considered as pH-sensitive mutation and could be used for construction of IgG variants of 2A8-g200.
row,"fold (x) printed after the variant's name; the sheet does not name it, paragraph 57 speaks of the ratio of kd at pH 6.0 to kd at pH 7.4 [x]",Binder
1,3.2,B5
2,2.7,B8

# Molecular target: T1, Human TFPI (tissue factor pathway …)
# Test: ELISA on plate-coated human TFPI; Fab expression media bound, then 1 h at 37 C in 100 mM citrate pH 6.0; amplex red
# Experimental: as §1
row,"TFPI ELISA signal, pH 6.0",Binder
1,5350,B1
2,2580,B2
3,2040,B3
4,1510,B4
5,133,B5
6,1770,B6
7,1640,B7
8,2640,B8
9,1550,B9
10,1080,B10
11,1430,B11
